In paper PMC4358236 (The Journal of Biological Chemistry, 2015):

Biological target: the molecule itself
Test: SEC-MALS

B1: VACV protein N1 with C-terminal His6 tag (natural protein)
chain: MRTLLIRYILWRNDNDQTYYNDNFKKLMLLDELVDDGDVCTLIKNMRMTLSDGPLLDRLNQPVNNIEDAKRMIAISAKVARDIGERSEIRWEESFTILFRMIETYFDDLMIDLYGEK
  stoichiometry N: 2
